{
  "source": "FireProtDB",
  "conditions": "Thermal, whole UniProt chain shown",
  "key": {"[1]": {"conditions": "Glycine max, pH 7, DSC, HEPES/MOPS/ACES/Tris/triethanolamine/phosphate 17 mM/17 mM/17 mM/10 mM/13 mM/10 mM"}, "[2]": {"conditions": "Bos taurus, pH 6.5, Absorbance, None, reversible: no"}, "[3]": {"conditions": "Bos taurus, pH 7.4, Absorbance, phosphate, reversible: no"}},
  "data": [
    {"protein": "Trypsin inhibitor B wild type, P01071 (protein) DFVLDNEGNPLSNGGTYYILSDITAFGGIRAAPTGNERCPLTVVQSRNELDKGIGTIISSPFRIRFIAEGNPLRLKFDSFAVIMLCVGIPTEWSVVEDLPEGPAVKIGENKDAVDGWFRIERVSDDEFNNYKLVFCTQQAEDDKCGDIGISIDHDDGTRRLVVSKNKPLVVQFQKVDKESL", "values": [
      {"measurement": "Tm", "setting": "[1]", "result": 59, "unit": "°C"},
      {"measurement": "heat capacity change of unfolding", "setting": "[1]", "result": 2.63, "unit": "kcal/mol/K"},
      {"measurement": "unfolding enthalpy (calorimetric)", "setting": "[1]", "result": 103, "unit": "kcal/mol"}
    ]},
    {"protein": "Tryptophan synthase alpha chain wild type, P0A877 (protein) MERYESLFAQLKERKEGAFVPFVTLGDPGIEQSLKIIDTLIEAGADALELGIPFSDPLADGPTIQNATLRAFAAGVTPAQCFEMLALIRQKHPTIPIGLLMYANLVFNKGIDEFYAQCEKVGVDSVLVADVPVEESAPFRQAALRHNVAPIFICPPNADDDLLRQIASYGRGYTYLLSRAGVTGAENRAALPLNHLVAKLKEYNAAPPLQGFGISAPDQVKAAIDAGAAGAISGSAIVKIIEQHINEPEKMLAALKVFVQPMKAATRS", "values": [
      {"measurement": "Tm", "setting": "Escherichia coli (strain K12), pH 8.98, DSC, sodium tetraborate 1 mM", "result": 54.2, "unit": "°C"}
    ]},
    {"protein": "Beta-lactoglobulin wild type, P02754 (protein) MKCLLLALALTCGAQALIVTQTMKGLDIQKVAGTWYSLAMAASDISLLDAQSAPLRVYVEELKPTPEGDLEILLQKWENGECAQKKIIAEKTKIPAVFKIDALNENKVLVLDTDYKKYLLFCMENSAEPEQSLACQCLVRTPEVDDEALEKFDKALKALPMHIRLSFNPTQLEEQCHI", "values": [
      {"measurement": "Tm", "setting": "Bos taurus, pH 4, DSC, Unknown", "result": 82, "unit": "°C"},
      {"measurement": "Tm", "setting": "[2]", "result": 80.1, "unit": "°C"},
      {"measurement": "unfolding enthalpy (van 't Hoff)", "setting": "[2]", "result": 55.5, "unit": "kcal/mol"},
      {"measurement": "Tm", "setting": "[3]", "result": 65.9, "unit": "°C"},
      {"measurement": "unfolding enthalpy (van 't Hoff)", "setting": "[3]", "result": 39.9, "unit": "kcal/mol"}
    ]}
  ]
}
